Assay results from patent US20190381086A1 (Scripps Research, published 2019).

T1: E1 for neddylation, APPBP1/UBA3 heterodimer (UniProt Q13564 1-534; Q8TBC4 22-463)
T1 construct: GST-tagged or untagged preparations are mentioned; also called GST-APPBP1/UBA3; NAE; not shown: GST tag on APPBP1 (GST-APPBP1/UBA3)
T1 sequence (looked up) 1: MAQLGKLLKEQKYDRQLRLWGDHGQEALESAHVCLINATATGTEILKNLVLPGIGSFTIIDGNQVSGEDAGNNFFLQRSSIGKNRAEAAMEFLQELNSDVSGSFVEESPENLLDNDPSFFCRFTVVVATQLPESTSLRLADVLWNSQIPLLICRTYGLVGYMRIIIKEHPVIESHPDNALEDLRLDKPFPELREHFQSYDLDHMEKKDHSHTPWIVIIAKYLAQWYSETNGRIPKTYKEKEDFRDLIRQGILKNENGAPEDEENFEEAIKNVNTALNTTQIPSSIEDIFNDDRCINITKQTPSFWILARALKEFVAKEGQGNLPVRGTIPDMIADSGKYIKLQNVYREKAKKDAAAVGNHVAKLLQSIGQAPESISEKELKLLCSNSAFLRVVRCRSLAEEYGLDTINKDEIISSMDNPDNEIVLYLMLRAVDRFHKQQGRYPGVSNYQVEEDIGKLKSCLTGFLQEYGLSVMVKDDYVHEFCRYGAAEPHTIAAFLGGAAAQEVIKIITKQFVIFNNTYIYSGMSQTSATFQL
T1 sequence (looked up) 2: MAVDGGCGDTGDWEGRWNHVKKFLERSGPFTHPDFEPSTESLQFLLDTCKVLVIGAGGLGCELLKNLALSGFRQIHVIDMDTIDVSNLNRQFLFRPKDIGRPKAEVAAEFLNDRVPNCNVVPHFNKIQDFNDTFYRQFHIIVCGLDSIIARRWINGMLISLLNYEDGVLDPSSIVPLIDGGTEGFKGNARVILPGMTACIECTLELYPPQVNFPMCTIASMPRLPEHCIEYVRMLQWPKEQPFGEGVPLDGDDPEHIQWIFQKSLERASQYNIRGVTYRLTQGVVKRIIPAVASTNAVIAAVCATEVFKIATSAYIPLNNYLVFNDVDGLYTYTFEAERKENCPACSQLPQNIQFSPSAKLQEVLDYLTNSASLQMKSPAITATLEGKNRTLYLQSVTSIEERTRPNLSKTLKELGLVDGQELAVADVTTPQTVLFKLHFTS

T2: N-terminal GST-tagged GlyRS (human, UniProt P41250 55-739)
T2 construct: also called GST-GlyRS; immobilized GlyRS; not shown: N-terminal GST tag from a modified pET28a vector
T2 sequence: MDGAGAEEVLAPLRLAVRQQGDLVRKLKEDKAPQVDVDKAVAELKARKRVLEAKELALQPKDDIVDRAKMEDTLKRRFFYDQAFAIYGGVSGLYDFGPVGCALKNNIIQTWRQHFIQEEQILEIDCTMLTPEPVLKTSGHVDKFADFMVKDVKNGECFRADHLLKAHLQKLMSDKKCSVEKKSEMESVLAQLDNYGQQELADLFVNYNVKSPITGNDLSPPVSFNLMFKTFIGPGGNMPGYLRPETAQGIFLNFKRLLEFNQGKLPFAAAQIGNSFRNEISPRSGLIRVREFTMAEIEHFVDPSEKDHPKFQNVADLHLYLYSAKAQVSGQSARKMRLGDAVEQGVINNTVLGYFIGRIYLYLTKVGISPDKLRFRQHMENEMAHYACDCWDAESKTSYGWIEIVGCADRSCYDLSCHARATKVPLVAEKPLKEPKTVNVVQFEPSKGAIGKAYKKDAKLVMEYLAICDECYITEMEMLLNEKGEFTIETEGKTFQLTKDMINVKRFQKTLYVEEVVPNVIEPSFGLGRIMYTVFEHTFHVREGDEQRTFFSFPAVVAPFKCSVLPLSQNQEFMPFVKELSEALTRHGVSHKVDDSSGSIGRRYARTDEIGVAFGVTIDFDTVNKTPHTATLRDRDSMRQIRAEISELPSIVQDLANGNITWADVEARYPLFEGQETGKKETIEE

T3: GlyRS in HEK293 cells (endogenous) (human, UniProt P41250 55-739, limits assumed)
T3 sequence: T2 sequence

T4: GST-APPBP1 (UniProt Q13564 1-534, limits assumed)
T4 construct: Fractions of a Superdex 200 run of GST-APPBP1/UBA3 that held only GST-APPBP1; also called APPBP1 subunit alone; E1 regulatory subunit APPBP1; not shown: GST tag
T4 sequence (looked up): T1 sequence (looked up) 1

B1: His-tagged human TrpRS (tryptophanyl-tRNA synthetase) (enzyme, UniProt P23381 1-471, looked up)
chain: MPNSEPASLLELFNSIATQGELVRSLKAGNASKDEIDSAVKMLVSLKMSYKAAAGEDYKADCPPGNPAPTSNHGPDATEAEEDFVDPWTVQTSSAKGIDYDKLIVRFGSSKIDKELINRIERATGQRPHHFLRRGIFFSHRDMNQVLDAYENKKPFYLYTGRGPSSEAMHVGHLIPFIFTKWLQDVFNVPLVIQMTDDEKYLWKDLTLDQAYSYAVENAKDIIACGFDINKTFIFSDLDYMGMSSGFYKNVVKIQKHVTFNQVKGIFGFTDSDCIGKISFPAIQAAPSFSNSFPQIFRDRTDIQCLIPCAIDQDPYFRMTRDVAPRIGYPKPALLHSTFFPALQGAQTKMSASDPNSSIFLTDTAKQIKTKVNKHAFSGGRDTIEEHRQFGGNCDVDVSFMYLTFFLEDDDKLEQIRKDYTSGAMLTGELKKALIEVLQPLIAEHQARRKEVTDEIVKEFMTPRKLSFDFQ
notes: not shown: His tag
B2: full-length human GlyRS (enzyme)
chain: T2 sequence
notes: A tag-free preparation is described (N-terminal His-SUMO tag removed by Ulp1); the His-tagged preparation may have been used in some of those; also called full-length GlyRS; tag-free full-length GlyRS
B3: His-tagged full-length human GlyRS (glycyl-tRNA synthetase) (enzyme)
chain: T2 sequence
notes: also called His-tagged GlyRS; purified human GlyRS protein; not shown: His tag
B4: GST-Ubc12 (enzyme)
chain: MIKLFSLKQQKKEEESAGGTKGSSKKASAAQLRIQKDINELNLPKTCDISFSDPDDLLNFKLVICPDEGFYKSGKFVFSFKVGQGYPHDPPKVKCETMVYHPNIDLEGNVCLNILREDWKPVLTINSIIYGLQYLFLEPNPEDPLNKEAAEVLQNNRRLFEQNVQRSMRGGYIGSTYFERCLK
modifications: N-terminal GST fusion, not carried in the letters
notes: Bait on glutathione beads in the GST pull-down; Band between 42 and 57 kDa in the input blot; also called GST-tagged Ubc12; not shown: GST tag and the linker to Ubc12
B5: Ubc12 (enzyme, UniProt P61081 1-183, looked up)
chain: B4 chain
notes: GST-tagged or untagged preparations are mentioned; also called Ubc12 alone; apo Ubc12
B6: ΔWHEP GlyRS (enzyme)
chain: IVDRAKMEDTLKRRFFYDQAFAIYGGVSGLYDFGPVGCALKNNIIQTWRQHFIQEEQILEIDCTMLTPEPVLKTSGHVDKFADFMVKDVKNGECFRADHLLKAHLQKLMSDKKCSVEKKSEMESVLAQLDNYGQQELADLFVNYNVKSPITGNDLSPPVSFNLMFKTFIGPGGNMPGYLRPETAQGIFLNFKRLLEFNQGKLPFAAAQIGNSFRNEISPRSGLIRVREFTMAEIEHFVDPSEKDHPKFQNVADLHLYLYSAKAQVSGQSARKMRLGDAVEQGVINNTVLGYFIGRIYLYLTKVGISPDKLRFRQHMENEMAHYACDCWDAESKTSYGWIEIVGCADRSCYDLSCHARATKVPLVAEKPLKEPKTVNVVQFEPSKGAIGKAYKKDAKLVMEYLAICDECYITEMEMLLNEKGEFTIETEGKTFQLTKDMINVKRFQKTLYVEEVVPNVIEPSFGLGRIMYTVFEHTFHVREGDEQRTFFSFPAVVAPFKCSVLPLSQNQEFMPFVKELSEALTRHGVSHKVDDSSGSIGRRYARTDEIGVAFGVTIDFDTVNKTPHTATLRDRDSMRQIRAEISELPSIVQDLANGNITWADVEARYPLFEGQETGKKETIEE
notes: also called AWHEP GlyRS; core synthetase; not shown: His tag
B7: APPBP1 in HEK293 cells (endogenous) (enzyme, UniProt Q13564 2-534, looked up)
chain: AQLGKLLKEQKYDRQLRLWGDHGQEALESAHVCLINATATGTEILKNLVLPGIGSFTIIDGNQVSGEDAGNNFFLQRSSIGKNRAEAAMEFLQELNSDVSGSFVEESPENLLDNDPSFFCRFTVVVATQLPESTSLRLADVLWNSQIPLLICRTYGLVGYMRIIIKEHPVIESHPDNALEDLRLDKPFPELREHFQSYDLDHMEKKDHSHTPWIVIIAKYLAQWYSETNGRIPKTYKEKEDFRDLIRQGILKNENGAPEDEENFEEAIKNVNTALNTTQIPSSIEDIFNDDRCINITKQTPSFWILARALKEFVAKEGQGNLPVRGTIPDMIADSGKYIKLQNVYREKAKKDAAAVGNHVAKLLQSIGQAPESISEKELKLLCSNSAFLRVVRCRSLAEEYGLDTINKDEIISSMDNPDNEIVLYLMLRAVDRFHKQQGRYPGVSNYQVEEDIGKLKSCLTGFLQEYGLSVMVKDDYVHEFCRYGAAEPHTIAAFLGGAAAQEVIKIITKQFVIFNNTYIYSGMSQTSATFQL
B8: ABD (V541-E685) of GlyRS (enzyme)
chain: VREGDEQRTFFSFPAVVAPFKCSVLPLSQNQEFMPFVKELSEALTRHGVSHKVDDSSGSIGRRYARTDEIGVAFGVTIDFDTVNKTPHTATLRDRDSMRQIRAEISELPSIVQDLANGNITWADVEARYPLFEGQETGKKETIEE
notes: Cloned, expressed and purified in a similar way as the full-length GlyRS; also called ABD GlyRS; ABD domain alone

Experiments:
ubiquitin = biological target: T5, ubiquitin (UniProt P0CG48 1-76); assay: His-tag pull-down
T5 construct: Bought protein

[1] = biological target: T1, E1 for neddylation, APPBP1/UBA3 …; assay: biolayer interferometry, E1 (APPBP1/UBA3) immobilized, analyte 62.5-500 nM
ABD (V541-E685) of GlyRS = biological target: B8; assay: GST pull-down on glutathione beads, blot anti-GlyRS
[2] = biological target: T2, N-terminal GST-tagged GlyRS; assay: biolayer interferometry (Octet), GlyRS immobilized, 30°C
[3] = biological target: T3, GlyRS in HEK293 cells (endogenous); assay: co-immunoprecipitation, HEK293 cells
GST-APPBP1 = biological target: T4, GST-APPBP1; assay: biolayer interferometry, APPBP1 immobilized, ABD GlyRS 0.58-4.6 µM

B1
binding result (ubiquitin): no binding

B2
Kd [1]: 159 nM

B3
binding result (ubiquitin): no binding

B4
binding result (ABD (V541-E685) of GlyRS): no binding

B5
Kd [2]: 488 nM

B6
Kd [1]: 177 nM

B7
binding result [3]: binds

B8
Kd [1]: 187 nM | Kd (GST-APPBP1): 144 nM
